# From the supplement of paper PMC12783771
# ± gives the standard deviation of the averaged measurements.
# B1: library; numbered along this chain (parent)
# chain: MNIQIGELAKRTACPVVTIRFYEQEGLLPPPGRSRGNFRLYGEEHVERLQFIRHCRSLDMPLSDVRTLLSYRKRPDQDCGEVNMLLDEHIRQVESRIGALLELKHHLVELREACSGARPAQSCGILQGLSDCVCDTRGTTAHPSD
# Assays:
# [1] = variants of: B1; experiment: sfGFP reporter fluorescence (15 h) (µM FITC); higher = higher leak; conditions: library round: Round 0; ligand: none
# Summary of the method: (§1)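 Values are endpoint sfGFP fluorescence given as µM FITC equivalents. Fluorescence was read at 485/528 nm on a Synergy Neo2, and FITC standard curves were prepared in 50 mM sodium borate pH 8.5. Reactions of 1 μL combined BL21 Star (DE3) PANOx-SP extract, pPbrR-sfGFP reporter, 30 μg/mL GamS and linear PbrR templates (PCR-made, Echo-normalized to 5 nM), with 1 µM lead chloride, 30 µM zinc acetate or no metal, for 15 hr at 30 °C.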
# [2] = variants of: B1; experiment: sfGFP reporter fluorescence (15 h) (µM FITC); higher = stronger transcriptional activation; conditions: library round: Round 0
# Summary of the method: as §1
Variant,sfGFP reporter fluorescence [1],sfGFP reporter fluorescence ([2]; ligand: 1 µM Pb),sfGFP reporter fluorescence ([2]; ligand: 30 µM Zn)
D131S,0.0618 ± 0.0034,0.1033 ± 0.00052,0.962 ± 0.087
D131V,0.0641 ± 0.001,0.0905 ± 0.0078,0.984 ± 0.15
D131Y,0.05919 ± 0.00026,0.0815 ± 0.0029,0.806 ± 0.01
D131F,0.0596 ± 0.0013,0.0821 ± 0.0057,0.723 ± 0.048
D131H,0.0621 ± 0.0013,0.0957 ± 0.0026,0.996 ± 0.034
D131N,0.0654 ± 0.00078,0.103 ± 0.0093,1.13 ± 0.24
D131K,0.0706 ± 0.0029,0.127 ± 0.012,1.5 ± 0.34
D131L,0.0663 ± 0.0042,0.119 ± 0.0091,0.994 ± 0.19
D131G,0.0566 ± 0.00078,0.0991 ± 0.0034,0.604 ± 0.15
D131T,0.06267 ± 0.00052,0.0914 ± 0.012,0.747 ± 0.23
D131M,0.0687 ± 0.0018,0.126 ± 0.0073,1.17 ± 0.17
D131W,0.05699 ± 0.00026,0.07275 ± 0.00026,0.356 ± 0.046
D131E,0.059 ± 0.0021,0.0825 ± 0.0042,0.657 ± 0.043
D131Q,0.06432 ± 0.00026,0.124 ± 0.0029,1.26 ± 0.24
D131C,0.05919 ± 0.00026,0.0779 ± 0.0013,0.242 ± 0.062
D131P,0.0546 ± 0.0015,0.0619 ± 0.0021,0.134 ± 0.015
Q121A,0.0645 ± 0.001,0.0944 ± 0.0023,1.16 ± 0.19
S130A,0.0599 ± 0.0013,0.0821 ± 0.001,0.862 ± 0.14
G124A,0.05919 ± 0.00026,0.064 ± 0.0013,0.222 ± 0.015
V133A,0.06341 ± 0.00052,0.0746 ± 0.007,0.769 ± 0.021
I125T,0.0585 ± 0.0023,0.0566 ± 0.0013,0.06414 ± 0.00052
I125H,0.0601 ± 0.0031,0.06011 ± 0.00052,0.057 ± 0.0023

Variant,sfGFP reporter fluorescence [1],sfGFP reporter fluorescence ([2]; ligand: 1 µM Pb),sfGFP reporter fluorescence ([2]; ligand: 30 µM Zn)
I125A,0.0572 ± 0.0042,0.0553 ± 0.0021,0.0585 ± 0.0023
I125S,0.0597 ± 0.0021,0.0574 ± 0.0013,0.0568 ± 0.0021
I125N,0.0581 ± 0.00078,0.0581 ± 0.00078,0.055 ± 0.0015
I125F,0.0553 ± 0.001,0.0579 ± 0.0021,0.05259 ± 0.00026
I125Q,0.0588 ± 0.00078,0.0597 ± 0.0015,0.055 ± 0.0021
I125M,0.05992 ± 0.00026,0.0579 ± 0.001,0.05571 ± 0.00052
I125Y,0.059 ± 0.0021,0.0588 ± 0.0023,0.0552 ± 0.0029
I125E,0.0597 ± 0.0026,0.0581 ± 0.00078,0.0557 ± 0.0031
I125G,0.0546,0.0559 ± 0.00078,0.0504 ± 0.0029
I125K,0.0599 ± 0.0029,0.05864 ± 0.00052,0.0564 ± 0.0031
I125L,0.055 ± 0.001,0.05717 ± 0.00052,0.05552 ± 0.00026
I125V,0.0583,0.0627,0.183 ± 0.0036
I125P,0.0559 ± 0.00078,0.05791 ± 0.00052,0.05351 ± 0.00052
I125C,0.0596 ± 0.00078,0.05901 ± 0.00052,0.0568 ± 0.0047
I125R,0.0608 ± 0.0026,0.0603 ± 0.0013,0.0575 ± 0.0021
I125W,0.0588 ± 0.0018,0.0596 ± 0.0013,0.0564 ± 0.0026
I125D,0.0585 ± 0.0013,0.0583 ± 0.0031,0.0559 ± 0.0039
C132A,0.0695 ± 0.0023,0.0832 ± 0.0073,1.63 ± 0.043
R137A,0.0579 ± 0.0021,0.06524 ± 0.00052,0.454 ± 0.062
H142A,0.0614 ± 0.0034,0.0718 ± 0.001,0.728 ± 0.32
C134Q,0.0652,0.0953 ± 0.001,1.33 ± 0.4
C134G,0.0651 ± 0.0029,0.0841 ± 0.0013,1.35 ± 0.059
